Legend:
[1] = biological target: eel follicle-stimulating hormone receptor (eel FSHR) on CHO-K1 cells (eel)
[2] = biological target: eel follicle-stimulating hormone receptor (eel FSHR) on HEK293 cells (eel)

Row | cAMP production (HTRF) in CHO-K1 cells transiently expressing eel FSHR, 30 min, dose-response: EC50 [1] [µg/mL] | pERK1/2 HTRF ratio in HEK293 cells transiently expressing eel FSHR, time course 0-30 min after agonist; peak at 5 min [2] | Substance
1 | 0.129 | 7090 | recombinant single-chain eel follicle-stimulating hormone mutant with the eCG β-subunit CTP linker (amino acids 115–149) between the β-subunit and the α-subunit (eel FSH-M) (from UniProt P08751 135-169) (ligand)
2 | 0.16 | 7460 | recombinant single-chain (tethered) eel follicle-stimulating hormone, wild type (eel FSH β/α-wt) (ligand)
